Earlier results, collected in patent US20170290929A1, “GRP78 TARGETED CONJUGATES” (University of Iowa Research Foundation, priority 2014, published 2017).
Ends that are not written are not given here.

Molecular target: GRP78 (Homo sapiens, UniProt P11021)
Settings: cell free binding assays

Chain of GRP78 (P11021 19-654, species assumed): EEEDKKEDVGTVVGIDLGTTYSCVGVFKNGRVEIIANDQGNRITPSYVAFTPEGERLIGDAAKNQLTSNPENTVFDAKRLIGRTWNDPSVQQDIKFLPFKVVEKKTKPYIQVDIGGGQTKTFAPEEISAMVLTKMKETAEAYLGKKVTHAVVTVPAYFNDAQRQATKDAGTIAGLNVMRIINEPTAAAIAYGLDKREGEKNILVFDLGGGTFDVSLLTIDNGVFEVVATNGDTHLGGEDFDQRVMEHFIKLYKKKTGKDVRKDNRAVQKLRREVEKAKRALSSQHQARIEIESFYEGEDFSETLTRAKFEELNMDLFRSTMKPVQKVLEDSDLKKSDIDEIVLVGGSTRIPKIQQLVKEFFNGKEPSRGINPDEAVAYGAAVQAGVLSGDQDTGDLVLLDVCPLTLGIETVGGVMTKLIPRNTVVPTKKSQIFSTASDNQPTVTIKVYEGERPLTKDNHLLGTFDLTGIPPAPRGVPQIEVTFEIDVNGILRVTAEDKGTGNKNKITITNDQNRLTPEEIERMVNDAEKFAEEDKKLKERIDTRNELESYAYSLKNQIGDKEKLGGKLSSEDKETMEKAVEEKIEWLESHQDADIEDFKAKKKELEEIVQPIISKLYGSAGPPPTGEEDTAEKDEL

Substance: PEP42: 13-mer cyclic peptide, amino acid sequence CTVALPGGYVRKC (SEQ ID NO:1) (also: cyclic)
- binding with GRP78: shown to bind with GRP78
